17 sequences from a protein production outcome set (Wang et al. 2014) can be followed below.

The nature of the data set: label from the status in PepcDB records.
For “MQGIPLGSEYFEKLDPYFLVCIAKEYLLFCPKQPRLPGQIVSPLLKQVAVILNPVVKAAPALIDPLYLMAQVRYYSGELENAQSILQRCLELDPASVDAHLLMCQIYLAQGNFGMCFHCLELGVSHNFQVRDHPLYHLIKARALNKAGDYPEAIKTLKMVIKLPALKKEEGRKFLRPSVQPSQRASILLELVEALRLNGELHEATKVMQDTINEFGGTPEENRITIANVDLVLSKGNVDVALNMLRNILPKQSCYMEAREKMANIYLQTLRDRRLYIRCYRELCEHLPGPHTSLLLGDALMSILEPEKALEVYDEAYRQNPHDASLASRIGHAYVKAHQYTEAIEYYEAAQKINGQDFLCCDLGKLLLKLKKVNKAEKVLKQALEHDIVQDIPSMMNDVKCLLLLAKVYKSHKKEAVIETLNKALDLQSRILKRVPLEQPEMIPSQKQLAASICIQFAEHYLAEKEYDKAVQSYKDVFSYLPTDNKVMLELAQLYLLQGHLDLCEQHCAILLQTEQNHETASVLMADLMFRKQKHEAAINLYHQVLEKAPDNFLVLHKLIDLLRRSGKLEDIPAFFELAKKVSSRVPLEPGFNYCRGIYCWHIGQPNEALKFLNKARKDSTWGQSAIYHMVQICLNPDNEVVGGEAFENQGAESNYMEKKELEQQGVSTAEKLLREFYPHSDSSQTQLRLLQGLCRLATREKANMEAALGSFIQIAQAEKDSVPALPALAQAYVFLKQIPKARMQLKRLAKTPWVLSEAEDLEKSWLLLADIYCQGSKFDLALELLRRCVQYNKSCYKAYEYMGFIMEKEQSYKDAVTNYKLAWKYSHHANPAIGFKLAFNYLKDKKFVEAIEICNDVLREHPDYPKIREEILEKARKSLRP”, the protein production result is reported as “failed”.

“MQHGPVVRRRKLGAELRALRTSAGITSGEAARLVGWHQSKVSRIETGTSGAKPADVRLLLDAYGVTDEQLRGLLVMLAHSEDAGGRNHWWHAYRGVLPPTYRDFISLESQAAAMRTLETTVVPGLLQTPEYARAVTRAAVDGMPAERLDTLVEVRLARQDVLRGEPPLELSAVLDEAVLRRVVGGPGVMSRQLTRLVEAAQLPHVRIQVLPFAAGAHIGVTGPFVIFSFSSTSDLDVVVLDHLTSSLHLERKEDLEAYTEAFNALLIHALSPEDSLDFIAATAAGA”: the protein production entry is recorded as “failed”.

As for “MQHLDLQVVRKALKWSVGGERVWFCTVLTTYGSAPRAPGSLLAVNASGEWIGSLSGGCVEDDFLERVAAGGFPDPAVIVRYGEGDDPNSNIRLPCGGILDVLVENLAPDCDVQAHLRELESALLGQRRLLREVELGSGARSLRDDSSHGPRAERDGECVRLRVGAAQRLLLAGYSSVAHACAEFGKGLGFEVILCDPREEALRGVVLEGIEIRRELPSLFIADGGCHADTAVVALTHDPKIDDLAMLEAVRTEAFYIGVMGSRATSEKRFERLRRIGGLGDAELARIHAPIGLNLGSKTPAEIALAVLADILRIRNGIPRERL”, the protein production entry is reported as “failed”.

Turning to “MQHNELKTPYFMINEDKLIANLEKAKQLKEISGVKLVLALKCFSTWGVFDIIKPYLDGTTSSGPFEVKLGYETFGGETHAYSVGYSEDDVREVADICDKMIFNSQSQLAAYRHIVEGKASIGLRLNPGVSYAGQDLANPARKFSRLGVQADHIKPEVFEGIDGVMFHMNCENKDVDAFIGLLDAISEQFGEYLNKLDWVSMGGGVFFTWPGYDIEKLGLALKAFSEKHGVQMYLEPGEAIITKTTDLVVTVVDIVENVKKTAIVDSATEAHRLDTLIYNEPASILEASDNGEHEYVIGSCSCLAGDQFCVANFDQPLEIGQRLHILDSAGYTMVKLNWFNGLRMPSVYCERSSGEIQKLNEFDYSDFKRSLSQWSVK”, the protein production entry is reported as “failed”.

“MQIFETILIFLALVILSSFLHTFLPKIPLAFIQIILGMLLYVTPIPVQFNFDSELFMVALIAPLLFVEGVKVSRVHLRRYIKPVLMMALGLVVTTVIVVGLFVHWIWPELPMAAAFALAAILCPTDAVAVQAITNGKVLPKGSMTILEGESLLNDAAGIISFKIAVAALITGGFSMVNAVEQFLISSIGGFIVGLLIGVALVRFRVTLSRRGIENINMFTFIQLVTPFITYIVAEMFHASGIIAAVVAGLVHGFERDRIAQARTRLQMSYNHTWNILGYALNGFVFSILGFLIPEVVGRIIENEPHNLIFLITVTCLIALAIYLFRFLWVFVLYPYFYLPVSPFQKMISHNEDDQKTAETPPKRGMYAFIMTLCGVHGTISLAIALTLPYMLADHHSFIFRDDLLFIASGMVIISLIVAQMILPVVTPNAKKPKIVGMNFKQARVYILEKVIDSLNQQSSVTSSFQYGNVIKDYHDKLAFLRTVENEDENTKELQRLQKLAFDVENQTLNGLVENGDITTNVLDNYMRYTERTQVYKQASLLQRIKVEVRAMILKRRIRTKVKTNAASPLSVVDNLREISNIMRTVHYRVVSRLGKETTENNKLEVGMICDSYLIRIDNLTPSNFFNPKNENSITKIKLSALKEQRRILNQLVEDEEVSEVTALKIREAINYDEMIIVDSSTD”: the protein production result was “failed”.

Consider “MQILEDFDGKALPKLETDRLILRQRTVGDVPAMFDYVCLEEVAYPAGLSPIASLEDEYDYFENRYYQNLEKAKLPSGYGITVKGSDRIIGSCAFNHRHEDDVFEICYLLHPDYWGHGYMTEAVAALIEVGFTLLNLHKIEIRCYDYNKQSRRVAEKLGFTLEATIRDRKDNQDNRCVNLIYGLLRSEWE”, for which the protein production entry was “failed”.

In the case of “MQIVQIARPGSMKGWIRKAVARYAHATGRGGKFYRRFCNPSGLEWGAYLARWGNFHSVGSNFYVNTGCKFLDPSLVRIGNSVGLSDCTLIGHDGVVLLIEHRFGKHLDSVGFIDIKDNCFIGHGAIVMPRVTIGPESIVAAGAVVTKDVPPGTVYGGNPAEFICTTEQLIKRVEARCEAYPWIDLVKQRNGAYDPEVEPLLMAQRRQYFFGDSLEHHHHHH”, the protein production entry is “failed”.

Regarding “MQKFLDWLERVLTPLAKVIGENKYLVAIRDGFLLSTPLLIVGSVFLLIANFPLPQWDTWMSHLLGKDWATMMSVPASASFDVMTILAVVGIAYSLGKQFNVDAMQAGIIALVSFFIVTPYQTLFTPENSSKVYEVTSLPLKWMGSSGLFLGMIVALIATRLFVAIVRKGWTIKMPEGVPPTVVKSFEALIPSFLVVTLMFLVNWLAALTPYGNLQDVIFEFLQTPLLSLGNTLGAMSIAYLFLHFFWFFGINGGSVVGAVFNPVLRALSVENLQAFKDGHEIPNIITGQFQDMFATFGGAGSTLSLIIVMVLFCKSQRIKKLSQLSLIPGVFGINEPIIFGLPIVLNPILLIPFVLVPAINIIIAYFAMDWGLVPLTNGIQLPWTTPPIISGFLVSGWQGSILQALLLVLGMFIYYPFIRVMDDQYLREEWKAQEEESEEIDFDSFDFDDL”, the protein production result is on record as “failed”.

Consider “MQKIVIVANGAPYGSESLFNSLRLAIALREQESNLDLRLFLMSDAVTAGLRGQKPGEGYNIQQMLEILTAQNVPVKLCKTCTDGRGISTLPLIDGVEIGTLVELAQWTLSADKVLTF”, for which the protein production result is “not failed”.

As to “MQKKQVIAVLVAVVGIGIVFSLPKVLVDNEKESVEGAEVTVAHEDSLSEVGKLMAEKHTHKPSDSEQKKLQDFTKNYYSISDKEKKRIFADSILGYYNKFHKYDSVAKYSGEIAMLQPNEKNLLSAADAYMQASDLVSVNEKSAYMDKSRLYYEKALDINASNLDTKSKLAMTYVTTSNPMTGIRILQEVVKEDPRNETAIFNLGYLSMQSRQYNKAVDRFKSLIEINPAHASGTFYLGLSYLELGNKGKANQYFMKAKGLDSDPEFQAIIDSYLKESN”, the protein production entry is given as “failed”.

Turning to “MQLPLHQVAQPAFYISVVPDMVGGRLSSHDRDLLGLAHQLAGQDGAVLAVVFGEHKESAFATAGVDRLLVLQGSEFEGYAPEQRVQGLRAVDNQFSPRHWLLPDSRTGGGELGRRFAAALGERPATRVWQVKDGQCIGRAGAGLQDLARPVVRLILAAAECAEPVSETRHEALPVELSTSVARSLARIEDLGAVAVDPAAIPMAEAEFIFSGGNGVKDWPLFHQTAAALGATEGASRVAVDDGFMARDRQVGASGIWVTARVYVAVGISGAIQHLQGIGACDKVVAINLDPGCDMIKRADLSVIGDSAEILKALIAAVAAYRNDAKRDAA”, the protein production entry was “failed”.

As to “MQLPTQQVAVLDAASTDDPQRIEALAADTDYPPETIAGAALALEAEGLVAVTETTTTTVSLTDEGHAYATDGLPEVRLYRAALDAGADDAPVEMGSVIGAAGLDGPQVDIALSNYARKGYGTIDSGALAADPDADPENDPEADALATLTDGDSVDDDAVVDQLASRDLVTVSERTVRSVTLTEAGVTELMAGVEATDEVGELTPELLASGEWADVEFADYNVAADAADHTPGKTHVLRQAAERVTDVLVGMGFQEMAGPHVDADFYINDCLFMPQDHPARNHWDRFALSNPARIDELPDALVERVERAHREGAGDDGDGYHSPWDEDFARALALRGHTTSLTARHLAGLADADVEAPARYFSVEKAYRNDTLDATHLLEFFQIEGWVLADDLSVRDLMGTFREFYSQFGIHDLQFKPTYNPYTEPSFELFGRHPETGELIEIGNSGIFRPEMLDPLDVDGDVMAWGLALERLLMLMTGFEDIRDVHGTLCDVGFLRNAEVVY”, the protein production entry was “failed”.

Consider “MQLVVARIGRAHGIKGEVTVEVRTDEPELRLGPGAVLATDPASVGPLTIETGRVHSGRLLLRFEGVRDRNGAEALRNTLLIAEVDPDEVPEDPDEYYDHQLMDLDVVTKDGTEVGRITEISHLPSQDLFVVERSDGSEVYIPFVEEIVVEIDLEEQRAVIDPPPGLIDDRAEVDSSDTEAATEADALEHHHHHH”, for which the protein production entry is reported as “not failed”.

Take “MQMDSAQNQFNKRARLFEDPELKDAKVIYPSNPESTEPVNKGYGGSTAIQSFFKESKAEETPKVLKKRGRKKKNPNPEEVNSSTPGGDDSENRSKFYESASARKRTVTAEERERAVNAAKTFEPTNPYFRVVLRPSYLYRGCIMYLPSGFAEKYLSGISGFIKLQLGEKQWPVRCLYKAGRAKFSQGWYEFTLENNIGEGDVCVFELLRTRDFVLEVTAFRVNEYV”: the protein production entry is recorded as “failed”.

With “MQMSMLTRLHYFNCVVETGSISKASRIFDVQPSSISRQLTALEKELGVLLLKRTSRNIGLTEAGQTYYKYSQKIVSDLDEARCAVNDLQQKPKGNLKVSMAVGFAECCILPMIPTFTKLYPEINLELEMTGRVVDLVEENVDVAIRTGRLRDSNLIALKLTSNNFLLCASPQYITEHGTPKSPFNLTDFECIRYEYAGWRDWYLMNDKPTKLTIKSGLTVRSINGQKQLILNHAGLALMPKWSVINELDNGTLVQVLEQNIFSPYESMSSTYAIYLKRELISPKVRVFIDFIKDHIDYNS”, the protein production entry is reported as “failed”.

In the case of “MQNIRVVLARPNHPGNIGSAARAMKTMGLSRLYLVEPKVFPSEEANALASGAVDLLENATVVGSLREALSDVTVACALTSRRRELTTPLSTPRQTTPELIARARDGEQVALVFGNETFGLSIEEVEQCNRLVTIPGNPDYFSLNLAMAVQVMTYELFSHTGVDVEYLRAEGEAATQSEVDGMCGHLEQAMDEIGYFQRRNSERLMRRMRTMFHRAGMLREEIDILRGFYKQVQRTASGRSGDAD”, the protein production result is “failed”.

Consider “MQNNSYGYAVSVRVGGKEHRHWERYDIDSDFLIPADSFDFVIGRLGPEAAIPDLSGESCEVVIDGQIVMTGIIGSQRHGKSKGSRELSLSGRDLAGFLVDCSAPQLNVKGMTVLDAAKKLAAPWPQIKAVVLKAENNPALGKIDIEPGETVWQALTHIANSVGLHPWLEPDGTLVVGGADYSSPPVATLCWSRTDSRCNIERMDIEWDTDNRFSEVTFLAQSHGRSGDSAKHDLKWVYKDPTMTLHRPKTVVVSDADNLAALQKQAKKQLADWRLEGFTLTITVGGHKTRDGVLWQPGLRVHVIDDEHGIDAVFFLMGRRFMLSRMDGTQTELRLKEDGIWTPDAYPK”, for which the protein production result is reported as “not failed”.
